From patent US20260263521A1 (AIMED BIO, published 2026) come the findings set out here.

Experiment [1] has as its target T1, human CD200R1 expressed on cells (Jurkat-CD200R1, U937-CD200R1, HH cells) (human, UniProt Q8TD46 25-348).
T1 construct: whole, on cells; also called HH (CRL-2105); cell surface-expressed CD200R1
T1 sequence (looked up): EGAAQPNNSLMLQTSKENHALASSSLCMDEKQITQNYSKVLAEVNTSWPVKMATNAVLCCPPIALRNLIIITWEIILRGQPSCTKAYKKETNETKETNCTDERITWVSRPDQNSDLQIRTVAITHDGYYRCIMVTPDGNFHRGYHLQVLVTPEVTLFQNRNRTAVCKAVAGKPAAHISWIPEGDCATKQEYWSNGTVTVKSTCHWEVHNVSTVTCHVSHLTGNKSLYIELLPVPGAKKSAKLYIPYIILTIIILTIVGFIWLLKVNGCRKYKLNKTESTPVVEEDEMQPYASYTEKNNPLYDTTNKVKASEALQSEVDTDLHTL
The experiment is described as follows: flow cytometry, HH cells. The procedure: (§1) Two additional wells were treated with 10 μl of mouse IgG1K (BD, #555751) and 5 μl of commercial CD200R1 antibody (Biolegend, #329308) to determine CD200R1 expression on the cell line surface for cell quality control.
(§2) The antibodies were serially diluted 10-fold from a maximum concentration of 100 nM to 10 nM, 1 nM, […], and were added to the pre-seeded cells. After reaction for 1 hour at 4° C., the cells were treated with Alexa-647 goat anti-human IgG (H+L) cross-adsorbed secondary antibody (Invitrogen, #A21445) and incubated for an additional 30 minutes at 4° C. After washing twice with FACS buffer, flow cytometry was performed using a Novocyte Flow cytometer (Agilent). Using GraphPad Prism software, the EC₅₀ was determined using a nonlinear graph model of log (agonist) vs. response-variable slope, as shown in Table 32.

Experiment [2] addresses T2, Hybrid CD200R1 MH (mouse;human, UniProt Q9ES57;Q8TD46).
T2 construct: single domain; mouse D1 over human D2; also called MH hybrid domain; P001 MH domain
T2 sequence (hybrid extracellular part, looked up): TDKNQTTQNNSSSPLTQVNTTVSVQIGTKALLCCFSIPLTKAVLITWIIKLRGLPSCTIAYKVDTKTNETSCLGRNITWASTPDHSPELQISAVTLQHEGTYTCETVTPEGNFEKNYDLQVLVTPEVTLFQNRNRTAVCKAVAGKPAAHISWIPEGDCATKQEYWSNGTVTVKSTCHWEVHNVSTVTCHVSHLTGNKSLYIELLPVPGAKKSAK
Nature of the experiment: ELISA, plate-bound MH hybrid (1 ug/mL), antibody 0.0192-300 nM, O.D 450 nm; panel 'P001 MH domain-2)'. The procedure: Recombinant proteins were produced from the extracellular Ig-like V-type domain and Ig-like C2-type domain of human CD200R1, each designed as human-mouse (HM hybrid domain) and mouse-human (MH hybrid domain) recombinant proteins. A 96-well plate was coated at a concentration of 1 μg/mL with each protein at 4° C. for 16 hours and blocked with 3% skim milk. […] After color development with TMB substrate solution (Thermo Scientific, 34029, 1-Step™ Ultra TMB-ELISA Substrate Solution), the color reaction was stopped with a stop solution (Invitrogen, SS04, ELISA Stop Solution), and the absorbance was measured at an O.D. of 450 nm.

Experiment [3] concerns the target T1, human CD200R1 expressed on cells …. The experiment is described as follows: flow cytometry, U937-CD200R cells. How it is done:
as §1, §2

The target in experiment [4] is T3, recombinant human CD200R1 Fc chimera protein, CF (R&D systems, 3414-CD) (human, UniProt Q8TD46 27-266).
T3 construct: Bought; also called CD200R1-Fc protein; human CD200R1 Fc protein; Fc part of the bought chimera not given
T3 sequence (looked up): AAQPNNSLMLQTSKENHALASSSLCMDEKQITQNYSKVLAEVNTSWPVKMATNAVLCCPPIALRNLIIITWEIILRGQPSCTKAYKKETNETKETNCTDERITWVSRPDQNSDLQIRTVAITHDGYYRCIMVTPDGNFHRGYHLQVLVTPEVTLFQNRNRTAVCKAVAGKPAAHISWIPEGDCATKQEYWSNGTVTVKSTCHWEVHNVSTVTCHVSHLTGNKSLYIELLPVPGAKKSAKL
Nature of the experiment: ELISA, plate-bound human CD200R1-Fc (2 ug/mL), IgG 0.0192-300 nM, anti-human IgG F(ab')2-HRP, OD 450 nm; panel 'human CD200R1'. The procedure: 96-well plates were coated with human CD200R1 (R&D systems, 3414-CD) and mouse CD200R1 protein (R&D systems, 2554-CD) at a concentration of 2 μg/mL at 4° C. for 16 hours and then were blocked with 3% skim milk.
Color was developed with a TMB substrate solution (Thermo Scientific, 34029, 1-Step™ TMB-ELISA Ultra Substrate Solution). The color reaction was stopped with stop solution (Invitrogen, SS04, ELISA Stop Solution). The absorbance was measured at an optical density of 450 nm.

Experiment [5] has as its target T4, monkey CD200RLa (Sino Biological, 11576-C02H) recombinant protein (monkey (cyno), UniProt A0A2K5W6R0 30-246).
T4 construct: Bought; construct not described; also called cyno CD200RLa
T4 sequence: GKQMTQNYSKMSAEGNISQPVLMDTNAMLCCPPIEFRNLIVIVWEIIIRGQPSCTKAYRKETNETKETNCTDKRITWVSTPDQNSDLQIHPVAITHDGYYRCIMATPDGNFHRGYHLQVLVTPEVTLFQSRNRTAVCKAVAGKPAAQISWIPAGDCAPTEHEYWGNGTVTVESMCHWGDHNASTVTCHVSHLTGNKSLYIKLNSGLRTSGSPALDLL
Nature of the experiment: ELISA, plate-bound monkey CD200RLa (2 ug/mL), antibody 0.0192-300 nM, O.D 450 nm; panel 'recombinant cynomolgus CD200RLa/Fc'. The procedure:
96-well plates were coated with human CD200RLa (Sino Biological, 11620-H08H) and monkey CD200RLa (Sino Biological, 11576-C02H) recombinant proteins at a concentration of 2 μg/mL at 4° C. for 16 hours, and blocked with 3% skim milk for 1 hour. […] Color was developed with a TMB substrate solution (Thermo Scientific, 34029, 1-Step™ Ultra TMB-ELISA Substrate Solution). The color reaction was stopped with stop solution (Invitrogen, SS04, ELISA Stop Solution).

B1: P001009 (IgG) (antibody, V domains shown)
VH: EVQLLESGGGLVQPGGSLRLSCAASGFTFSSYDMSWVRQAPGKGLEWVSWISHGGGSIYYADSVKGRFTISRDNSKNTLYLQMNSLRAEDTAVYYCARDAPAYSAPLFDYWGQGTLVTVSS
VL: QSVLTQPPSASGTPGQRVTISCSGSSSNIGNNAVNWYQQLPGTAPKLLIYYDSNRPSGVPDRFSGSKSGTSASLAISGLRSEDEADYYCAAWDDSLSGYVFGGGTKLTVL
notes: also called P001009 WT; P001009 wt
With B1, the results for the EC50 in experiment [1] and in experiment [3] were 0.19 nM and 0.41 nM, respectively. For the same molecule, the binding result in experiment [2] and in experiment [5] was “no binding (tested: 300 nM)” throughout. Further, in experiment [4], the “EC50 (read off the curve)” value was roughly 0.5 nM.
